Source: patent US20190015483A1 (CSL BEHRING RECOMBINANT FACILITY, published 2019)
Positions count from the first letter of the chain named. Numbers in names are those of the source.

T1: recombinant Factor VIII (CSL627, rVIII-SingleChain) (Homo sapiens (Human), UniProt P00451 20-2351)
T1 construct: also called FVIII
T1 sequence: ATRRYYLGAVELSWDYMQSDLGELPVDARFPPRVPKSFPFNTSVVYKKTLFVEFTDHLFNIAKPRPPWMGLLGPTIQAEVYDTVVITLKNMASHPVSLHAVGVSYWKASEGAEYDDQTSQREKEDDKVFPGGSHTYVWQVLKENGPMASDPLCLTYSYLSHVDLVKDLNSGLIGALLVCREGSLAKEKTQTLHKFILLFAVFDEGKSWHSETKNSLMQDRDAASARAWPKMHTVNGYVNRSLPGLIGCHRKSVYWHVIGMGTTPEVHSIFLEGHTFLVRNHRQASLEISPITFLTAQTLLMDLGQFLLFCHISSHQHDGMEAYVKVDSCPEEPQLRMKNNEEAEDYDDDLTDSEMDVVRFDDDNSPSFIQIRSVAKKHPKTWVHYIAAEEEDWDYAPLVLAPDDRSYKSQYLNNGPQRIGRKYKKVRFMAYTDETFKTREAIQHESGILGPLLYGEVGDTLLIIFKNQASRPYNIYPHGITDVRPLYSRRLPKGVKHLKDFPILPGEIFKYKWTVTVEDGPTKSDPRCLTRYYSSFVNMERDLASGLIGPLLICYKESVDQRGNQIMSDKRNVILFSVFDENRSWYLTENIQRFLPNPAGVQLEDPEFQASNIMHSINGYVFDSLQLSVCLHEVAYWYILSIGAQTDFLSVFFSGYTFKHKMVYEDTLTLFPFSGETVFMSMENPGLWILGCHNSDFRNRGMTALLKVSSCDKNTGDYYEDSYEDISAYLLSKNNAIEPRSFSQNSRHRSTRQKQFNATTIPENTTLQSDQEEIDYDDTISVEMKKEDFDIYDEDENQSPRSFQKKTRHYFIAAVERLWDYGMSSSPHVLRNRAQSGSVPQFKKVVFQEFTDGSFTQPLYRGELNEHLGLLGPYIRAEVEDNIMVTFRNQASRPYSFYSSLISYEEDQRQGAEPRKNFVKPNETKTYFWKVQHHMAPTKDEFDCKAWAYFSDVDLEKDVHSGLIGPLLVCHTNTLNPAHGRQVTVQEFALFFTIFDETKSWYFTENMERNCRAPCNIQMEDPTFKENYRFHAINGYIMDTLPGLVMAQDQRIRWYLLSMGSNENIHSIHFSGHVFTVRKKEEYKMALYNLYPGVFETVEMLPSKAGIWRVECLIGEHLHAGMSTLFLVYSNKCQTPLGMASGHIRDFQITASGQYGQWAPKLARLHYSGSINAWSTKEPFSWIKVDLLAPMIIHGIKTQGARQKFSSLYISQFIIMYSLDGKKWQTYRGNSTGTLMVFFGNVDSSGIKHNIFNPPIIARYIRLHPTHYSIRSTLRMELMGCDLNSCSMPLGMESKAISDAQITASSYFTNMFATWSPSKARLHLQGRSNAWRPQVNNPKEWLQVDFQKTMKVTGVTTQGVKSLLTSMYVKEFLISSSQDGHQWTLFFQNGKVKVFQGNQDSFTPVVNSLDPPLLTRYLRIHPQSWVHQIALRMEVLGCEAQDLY

B1: Hu-vWF[764-1270]-8His S764P-K773I (other)
chain: PLSCRPPMVILVCPADNLRAEGLECTKTCQNYDLECMSMGCVSGCLCPPGMVRHENRCVALERCPCFHQGKEYAPGETVKIGCNTCVCRDRKWNCTDHVCDATCSTIGMAHYLTFDGLKYLFPGECQYVLVQDYCGSNPGTFRILVGNKGCSHPSVKCKKRVTILVEGGEIELFDGEVNVKRPMKDETHFEVVESGRYIILLLGKALSVVWDRHLSISVVLKQTYQEKVCGLCGNFDGIQNNDLTSSNLQVEEDPVDFGNSWKVSSQCADTRKVPLDSSPATCHNNIMKQTMVDSSCRILTSDVFQDCNKLVDPEPYLDVCIYDTCSCESIGDCACFCDTIAAYAHVCAQHGKVVTWRTATLCPQSCEERNLRENGYECEWRYNSCAPACQVTCQHPEPLACPVQCVEGCHAHCPPGKILDELLQTCVDPEDCPVCEVAGRRFASGKKVTLNPSDPEHCQICHCDVVNLTCEACQEPGGLVVPPTDAPVSPTTLYVEDISEPPLHDFHHHHHHHH
B2: Hu-vWF[764-1270]-8His S764P-L765M (other)
chain: B1 chain with L2M, I10K
B3: Hu-vWF[764-1270]-8His S764P-K773T (other)
chain: B1 chain with I10T
B4: Hu-vWF[764-1270]-8His S764P-K773V (other)
chain: B1 chain with I10V
B5: Hu-vWF[764-1270]-8His S764P-L765H (other)
chain: B1 chain with L2H, I10K
B6: Hu-vWF[764-1270]-8His S764P-K773W (other)
chain: B1 chain with I10W
B7: Hu-vWF[764-1270]-8His S764P-S766M (other)
chain: B1 chain with S3M, I10K
B8: Hu-vWF[764-1270]-8His S764P-L765V (other)
chain: B1 chain with L2V, I10K
B9: Hu-vWF[764-1270]-8His S764P-K773Y (other)
chain: B1 chain with I10Y
B10: Hu-vWF[764-1270]-8His S764P-L765Q (other)
chain: B1 chain with L2Q, I10K
B11: Hu-vWF[764-1270]-8His S764P-L765P (other)
chain: B1 chain with L2P, I10K
B12: Hu-vWF[764-1270]-8His S764P-L765T (other)
chain: B1 chain with L2T, I10K
B13: Hu-vWF[764-1270]-8His S764P-K773L (other)
chain: B1 chain with I10L
B14: Hu-vWF[764-1270]-8His S764P-L765Y (other)
chain: B1 chain with L2Y, I10K
B15: Hu-vWF[764-1270]-8His S764P-S766F (other)
chain: B1 chain with S3F, I10K
B16: Hu-vWF[764-1270]-8His S764P-K773Q (other)
chain: B1 chain with I10Q
B17: Hu-vWF[764-1270]-8His S764P-S766L (other)
chain: B1 chain with S3L, I10K
B18: Hu-vWF[764-1270]-8His S764P-S766G (other)
chain: B1 chain with S3G, I10K
B19: Hu-vWF[764-1270]-8His S764P-L765A (other)
chain: B1 chain with L2A, I10K
B20: Hu-vWF[764-1270]-8His S764P-L765I (other)
chain: B1 chain with L2I, I10K
B21: Hu-vWF[764-1270]-8His S764P-S766E (other)
chain: B1 chain with S3E, I10K
B22: Hu-vWF[764-1270]-8His S764P-K773N (other)
chain: B1 chain with I10N
B23: Hu-vWF[764-1270]-8His S764P-K773P (other)
chain: B1 chain with I10P
B24: Hu-vWF[764-1270]-8His S764P-L765F (other)
chain: B1 chain with L2F, I10K
B25: Hu-vWF[764-1270]-8His S764P-K773S (other)
chain: B1 chain with I10S
B26: Hu-vWF[764-1270]-8His S764P-S766K (other)
chain: B1 chain with S3K, I10K
B27: Hu-vWF[764-1270]-8His S764P-S766A (other)
chain: B1 chain with S3A, I10K
B28: Hu-vWF[764-1270]-8His S764P-K773M (other)
chain: B1 chain with I10M
B29: Hu-vWF[764-1270]-8His S764P-L765W (other)
chain: B1 chain with L2W, I10K
B30: Hu-vWF[764-1270]-8His S764P-K773R (other)
chain: B1 chain with I10R
B31: Hu-vWF[764-1270]-8His S764P-S766D (other)
chain: B1 chain with S3D, I10K
B32: Hu-vWF[764-1270]-8His S764P-S766H (other)
chain: B1 chain with S3H, I10K
B33: Hu-vWF[764-1270]-8His S764P-S766I (other)
chain: B1 chain with S3I, I10K

What follows are binders tested against T1, recombinant Factor VIII (CSL627, …) (assay: SPR, anti-His capture).
Protocol: Binding kinetics were investigated by surface plasmon resonance using a Biacore 4000 biosensor at 37° C. Each mutant was captured from cell culture medium to a density of 40-150 RU on a CM-5 sensor chip pre-immobilised with anti-His antibody (14,000 RU). In an initial screening study, FVIII was injected over the captured mutants for 5 minutes at 1 nM and dissociation monitored for 5 minutes.
All sensorgrams were double referenced by subtraction of signals from a reference spot (containing only immobilised anti His antibody) and from a blank injection. Binding kinetics were determined by fitting the double referenced sensorgrams to a 1:1 kinetic model.

Kd [nM]	koff [s⁻¹]	kon [M⁻¹ s⁻¹]	fold decrease in off-rate against wild type vWF [fold]	fold increase in affinity against wild type vWF [fold]	Binder
0.00943	0.000169	1.79e+07			B1
0.0243	0.000237	9.76e+06			B2
0.016	7.5e-05	4.68e+06			B3
0.0101	0.000157	1.55e+07			B4
0.555	0.00642	1.16e+07			B5
0.257	0.00321	1.25e+07			B6
0.00488	5.76e-05	1.18e+07			B7
0.355	0.0022	6.19e+06			B8
0.0835	0.00136	1.63e+07			B9
0.88	0.00714	8.12e+06			B10
0.0238	0.000242	1.02e+07			B11
0.634	0.00882	1.39e+07			B12
1.24	0.000572	460000			B13
0.355	0.0022	6.19e+06			B14
0.00741	0.0001	1.35e+07			B15
0.0288	0.000128	4.44e+06			B16
0.00606	8.74e-05	1.44e+07			B17

Kd [nM]	koff [s⁻¹]	kon [M⁻¹ s⁻¹]	fold decrease in off-rate against wild type vWF [fold]	fold increase in affinity against wild type vWF [fold]	Binder
0.0217	0.000388	1.79e+07			B18
0.906	0.0278	3.07e+07			B19
0.0118	9.52e-05	8.08e+06			B20
0.016	0.000128	8.04e+06			B21
0.0631	0.000347	5.5e+06			B22
0.0222	0.000501	2.26e+07			B23
0.0373	0.000632	1.69e+07			B24
0.0142	0.000306	2.16e+07			B25
0.014	0.000301	2.15e+07			B26
0.0123	0.000166	1.35e+07			B27
0.0108	0.00017	1.58e+07			B28
0.645	0.00514	7.97e+06			B29
0.0116	7.42e-05	6.39e+06			B30
0.0127	0.00012	9.41e+06			B31
0.00676	9.47e-05	1.4e+07			B32
0.00523	5.14e-05	9.84e+06	22	30	B33
